Test results taken from paper PMC8785239.

Target: fluorescein-labeled sulfopeptide
Test: fluorescence polarisation

Substance | fold improvement in affinity over SH2-wt | fold improvement in affinity for sulfopeptide over phosphopeptide
SH2-E38P (domain or fragment) | 17 fold | –
SH2-S37H (domain or fragment) | – | 1.4 fold
SH2-S37H/E38P (domain or fragment) | – | 6.6 fold
SH2-T39F (domain or fragment) | > 35 fold | –
